Measured values published in patent US20060040861A1, “Method of treating, preventing, and diagnosing prostate cancer” (priority 2004, published 2006).

Legend:
[1] = system: DU145 cells; test: MTT assay (cell growth / viability); assay type: cell-based, human; settings: 5 days
Protocol: DU145 (1×10^3/well), PC-3 (1×10^3/well) and LNCaP-FGC (1.5×10^3/well) cells were seeded in 96-well plates 24 hours prior to serum starvation. Cells were starved of serum for 24 hours and then incubated in the serum-free medium with or without 12.5 μg/ml leptin for 5 days. 3-(4,5-dimethylthiazol-2-yl)-2,5-diphenyl tetrazolium bromide (MTT) was added to each well to a concentration of 0.5 mg/ml. After 3-hour incubation at 37° C., cells were lysed in 50% dimethylformamide and 20% SDS at 37° C. Optical densities (O.D.) at 550 nm and 670 nm were measured by a plate reader, and differential O.D. between 550 nm and 670 nm (O.D. 550 nm minus O.D. 670 nm) were determined. Each experiment was performed in quadruplicate, and the values are reported as mean±SD.
DU145 (0.5-1.0×10^3/well), PC-3 (0.5-1.0×10^3/well), and LNCaP FGC (0.75-1.5×10^3/well) cells were seeded in 96-well plates 24 hours prior to serum starvation. Cells were starved of serum for 24 hours and then incubated in the serum-free medium with or without cytokine(s), DHT and/or doxorubicin at indicated concentrations for 5 days. MTT was added to each well to a concentration of 0.5 mg/ml. After being incubated at 37° C. for 3 hours, cells were lysed in 50% dimethylformamide and 20% SDS at 37° C. Optical densities (OD) at 550 and 670 nm were measured by a plate reader, and differential OD between 550 and 670 nm (OD 550 minus OD 670 nm) were determined. Each experiment was performed in quadruplicate, and the values were reported as mean±S.D.
Sucrose gradients were set up in 2.2-ml centrifuge tubes (Beckman Coulter, Inc., Fullerton, Calif.) by layering 5, 10, 15 and 20% (w/v) sucrose in velocity sedimentation buffer (10 mM HEPES, pH 8; 125 mM NaCl). Gradients were then equilibrated overnight at 4° C. Twenty micrograms of f-adiponectin in 200 μl of velocity sedimentation buffer containing 5 μl of HMW-Native protein marker kit (GE Healthcare, Piscataway, N.J.) set to 0.5 μg/μl albumin was overlayed onto the sucrose gradients and spun in a Beckman TLS-55 rotor at 55,000 rpm for 5 hours at 4° C. Fractions (150 μl each) were sequentially collected from the top to the bottom; aliquots were removed and used immediately in the MTT assay. The remaining material was stored at −80° C. for Western blot analysis with anti-adiponectin antibody and SDS-PAGE with silver staining. For the MTT assay, DU145 cells (0.5×1 03/well) were serum-starved and incubated in triplicate in 60 μl of the serum-free medium plus 30 μl of each fraction. For Western blot analysis, 0.5 μl of each fraction was electrophoresed on a 10% SDS-polyacrylamide gel and electrotransferred to a polyvinylidene difluoride membrane. The membrane was washed, blocked, and hybridized with the anti-adiponectin antibody. Bands were visualized using a Lumiglo reagent (Cell Signaling Technology, Inc., Beverly, Mass.). For SDS-PAGE, 20 μl of each fraction was electrophoresed on a 10% SDS-polyacrylamide gel, followed by silver staining using the Silver Stain kit (Bio-Rad Laboratories, Inc., Hercules, Calif.) to visualize molecular weight markers.

[2] = system: c-Jun; test: Western blot analysis of c-Jun phosphorylation in human cancer cells; assay type: cell-based
Protocol: Eighty-percent confluent prostate cancer cells were starved in the serum-free medium for 24 hours and then treated by 12.5 μg/ml leptin or 10 μg/ml anisomycin for the indicated periods. In some experiments, cells were pretreated with SP600125 prior to cytokine stimulation as described below. Cells were washed twice with cold PBS, harvested by a scraper and centrifuged for 10 minutes at 700×g at 4° C. The pellet was homogenized in the cell lysis buffer (20 mM HEPES, pH 7.9, 300 mM NaCl, 1 mM EDTA, 15% glycerol, 0.5% NP-40, 1 mM Na3VO4, 1 μg/ml leupeptin, 5 μg/ml aprotinin, 1 μg/ml pepstatin and 1 mM PMSF) and incubated at 4° C. with gentle rocking for 30 minutes. This homogenate was centrifuged for 5 minutes at 15,000×g, and the supernatant was saved as a cell lysate and stored at −80° C. until use.
Cell lysates containing 100 μg of protein were electrophoresed on 10% SDS-polyacrylamide gels and electrotransferred to PVDF membranes. Following the supplier's instructions, the membranes were washed, blocked and hybridized with anti-phospho-c-Jun (Ser-63 or Ser-73) polyclonal antibody that specifically recognizes a phosphorylated form of c-Jun. Bands were visualized using a Lumiglo reagent (Cell Signaling Technology Inc.). The membranes were then stripped and re-hybridized with anti-c-Jun antibody that detects both phosphorylated and unphosphorylated forms to normalize sample variations.
SP600125 was dissolved in DMSO to make a stock solution. Eighty-percent confluent prostate cancer cells were serum-starved for 24 hours and pretreated with SP600125 at indicated concentrations for 30 minutes, followed by leptin treatment (12.5 μg/ml): 15 minutes for Western blot analysis or 20 hours for thymidine incorporation assays. DMSO-treated cells were employed as controls.
Seventy-percent confluent cells were deprived of serum for 24 hours, followed by treatment with 1 μg/ml f- or g-adiponectin or 10 μg/ml anisomycin for indicated periods. After being rinsed with cold phosphate-buffered saline, cells were harvested using a scraper and collected by centrifugation at 700×g for 10 minutes at 4° C. The cell pellets were then homogenized in cell lysis buffer (20 mM HEPES, pH 7.9, 300 mM NaCl, 1 mM Na3VO4, 1 μg/ml leupeptin, 5 μg/ml aprotinin, 1 μg/ml pepstatin, and 1 mM phenylmethylsulfonyl fluoride) and rocked gently for 30 minutes at 4° C. The homogenates were centrifuged at 15,000×g for 5 minutes at 4° C., and the supernatants were saved as cell lysates and stored at −80° C. until use.
Cell lysates (100 μg of protein) were electrophoresed on 10% SDS-polyacrylamide gels and transferred to polyvinylidene difluoride membranes. […]

Row | Molecule | cell growth (MTT), leptin together with IGF-I ([1]; 12.5 μg/ml leptin and 100 ng/ml IGF-I, absence of androgen) | living cells (MTT) ([1]; 12.5 μg/ml leptin, serum-free) | c-Jun phosphorylation on Ser-63 and Ser-73 ([2]; DU145 and PC-3 cells, 12.5 μg/ml leptin) | effect on the leptin and/or IGF-I stimulation of cell growth (MTT) ([1]; 1 μg/ml f-adiponectin, 12.5 μg/ml leptin and/or 100 ng/ml IGF-I) | effect on the conditioned medium stimulation of cell growth (MTT) ([1]; 1 μg/ml f-adiponectin) | effect on the doxorubicin suppression of cell growth (MTT) ([1]; 1 μg/ml f-adiponectin) | cell growth (MTT) at concentrations up to 1 μg/ml ([1]; serum-free) | concentration at which the inhibitory effect on cell growth saturated ([1]; MTT) [µg/mL] | c-Jun phosphorylation at Ser-63 ([2]; DU145, PC-3, LNCaP-FGC and HepG2 cells, 1.0 μg/ml) | c-Jun phosphorylation at Ser-73 ([2]; DU145, PC-3 and HepG2 cells, 1.0 μg/ml) | c-Jun phosphorylation at Ser-73 ([2]; LNCaP-FGC cells, 1.0 μg/ml)
1 | leptin: Recombinant human leptin purchased from R&D Systems; major adipose cytokine | stimulated cell growth synergistically | increased living cells | stimulated c-Jun phosphorylation | – | – | – | – | – | – | – | –
2 | f-adiponectin: Recombinant human full-length (non-proteolytic) adiponectin, about 30-kDa polypeptide; lot mainly HMW form (protein, UniProt Q15848 1-244, looked up, full-length, Recombinant human full-length (non-proteolytic) adiponectin, about 30-kDa polypeptide; lot mainly HMW form) MLLLGAVLLLLALPGHDQETTTQGPGVLLPLPKGACTGWMAGIPGHPGHNGAPGRDGRDGTPGEKGEKGDPGLIGPKGDIGETGVPGAEGPRGFPGIQGRKGEPGEGAYVYRSAFSVGLETYVTIPNMPIRFTKIFYNQQNHYDGSTGKFHCNIPGLYYFAYHITVYMKDVKVSLFKKDKAMLFTYDQYQENNVDQASGSVLLHLEVGDQVWLQVYGEGERNGLYADNDNDSTFTGFLLYHDTN | – | – | – | remarkably suppressed | drastically suppressed | enhanced the doxorubicin suppression | inhibited cell growth in a dose-dependent manner | 1 | augmented c-Jun phosphorylation at Ser-63 | stimulated Ser-73 phosphorylation | quite modest
